{"source": "paper PMC4749145", "about": "(Biochemistry, 2015)", "molecules": {"B1": {"name": "arylalkylamine N-acetyltransferase like 7 (AANATL7) (Drosophila melanogaster) (protein)", "chain": "MEYKMIAPEHSEQVMEHLRRNFFADEPLNKAAGLCQNGSSCPALEAHCAEAIQHRMSVMAVDAKEKDTLKIVGVVLNGILKPGDTAKALSKLDCNDDADFRKIFDLLHRHNLKHNLFEHFDVDCMFDVRILSVDSCYRGQGIANELVKRSVAVAKKNGFRLLKADATGIFSQKIFRSHGFEVFSEQPYSKYTDENGKVILPVEAPHIKLQQLYKAICADDQDEKKQSL"}}, "key": {"[1]": {"target": "T1, arylalkylamine N-acetyltransferase like 7 (AANATL7) (Drosophila melanogaster, UniProt Q9W4Y1)", "assay": "dead-end inhibition kinetics", "type": "biochemical"}, "[2]": {"target": "T1, arylalkylamine N-acetyltransferase like 7 (AANATL7)", "assay": "intrinsic protein fluorescence quenching", "type": "binding"}, "[3]": {"target": "arylalkylamine N-acetyltransferase like 7 (AANATL7) (Drosophila melanogaster, UniProt Q9W4Y1, R138A)", "assay": "intrinsic protein fluorescence quenching", "type": "binding"}, "[4]": {"substrate": "NCCc1c[nH]c2ccc(OCc3ccccc3)cc12", "assay": "steady-state kinetics, Km,app", "type": "biochemical, Drosophila melanogaster", "details": "acetyl-CoA; pH 8.0"}, "[5]": {"substrate": "NCCc1c[nH]c2ccccc12", "assay": "steady-state kinetics, Km,app", "type": "biochemical, Drosophila melanogaster", "details": "acetyl-CoA; pH 8.0"}, "[6]": {"substrate": "NCCc1ccc(O)cc1", "assay": "steady-state kinetics, Km,app", "type": "biochemical, Drosophila melanogaster", "details": "acetyl-CoA; pH 8.0"}, "[7]": {"substrate": "CCCC(=O)SCCNC(=O)CCNC(=O)[C@H](O)C(C)(C)COP(=O)(O)OP(=O)(O)OC[C@H]1O[C@@H](n2cnc3c(N)ncnc32)[C@H](O)[C@@H]1OP(=O)(O)O", "assay": "steady-state kinetics, Km,app", "type": "biochemical, Drosophila melanogaster", "details": "pH 8.0"}, "purified protein": {"substrate": "CC(=O)SCCNC(=O)CCNC(=O)[C@H](O)C(C)(C)COP(=O)(O)OP(=O)(O)OC[C@H]1O[C@@H](n2cnc3c(N)ncnc32)[C@H](O)[C@@H]1OP(=O)(O)O", "assay": "purified protein", "details": "binds first in ordered sequential mechanism; pH 8.0"}}, "data": [{"molecule": "OCCc1ccc(O)cc1", "note": "[tyrosol]", "values": [{"measurement": "Ki", "setting": "[1]", "result": "430 ± 20", "unit": "µM"}]}, {"molecule": "CC(C)(COP(=O)(O)OP(=O)(O)OC[C@H]1O[C@@H](n2cnc3c(N)ncnc32)[C@H](O)[C@@H]1OP(=O)(O)O)[C@@H](O)C(=O)NCCC(=O)NCCS", "note": "[coenzyme A]", "values": [{"measurement": "Kd", "setting": "[2]", "result": "530 ± 110", "unit": "µM"}, {"measurement": "Kd", "setting": "[3]", "result": "1100 ± 200", "unit": "µM"}]}, {"molecule": "CCCCCCCC/C=C\\CCCCCCCC(=O)SCCNC(=O)CCNC(=O)[C@H](O)C(C)(C)COP(=O)(O)OP(=O)(O)OC[C@H]1O[C@@H](n2cnc3c(N)ncnc32)[C@H](O)[C@@H]1OP(=O)(O)O", "note": "[oleoyl-CoA]", "values": [{"measurement": "Ki", "setting": "[1]", "result": "0.2 ± 0.01", "unit": "µM"}]}, {"molecule": "B1", "values": [{"measurement": "Km", "setting": "[4]", "result": "9 ± 1", "unit": "µM"}, {"measurement": "kcat", "setting": "[4]", "result": "5.7 ± 0.1", "unit": "s⁻¹"}, {"measurement": "kcat/Km", "setting": "[4]", "result": "630000 ± 40000", "unit": "M⁻¹ s⁻¹"}, {"measurement": "Km", "setting": "[5]", "result": "26 ± 2", "unit": "µM"}, {"measurement": "kcat", "setting": "[5]", "result": "16 ± 0.3", "unit": "s⁻¹"}, {"measurement": "kcat/Km", "setting": "[5]", "result": "600000 ± 40000", "unit": "M⁻¹ s⁻¹"}, {"measurement": "Km", "setting": "[6]", "result": "42 ± 2", "unit": "µM"}, {"measurement": "Km", "setting": "[7]", "result": "6 ± 1", "unit": "µM"}, {"measurement": "kcat", "setting": "[7]", "result": "0.66 ± 0.02", "unit": "s⁻¹"}, {"measurement": "kcat/Km", "setting": "[7]", "result": "110000 ± 20000", "unit": "M⁻¹ s⁻¹"}, {"measurement": "Km", "setting": "purified protein", "result": "29 ± 2", "unit": "µM"}, {"measurement": "kcat", "setting": "purified protein", "result": 32, "unit": "s⁻¹"}, {"measurement": "kcat/Km", "setting": "purified protein", "result": "1.1e+06", "unit": "M⁻¹ s⁻¹"}]}]}
